This is an account of results in publication PMC11357992, “Non-invasive mapping of systemic neutrophil dynamics upon cardiovascular injury” (Nature Cardiovascular Research, 2023).

The nature of the data set: Liver serum markers after PFC injection. Format: in vivo, mouse. Details: serum level of ALP (alkaline phosphatase) / serum level of ALT (alanine aminotransferase) / serum level of GLDH (glutamate dehydrogenase) / serum level of AST (aspartate aminotransferase): unit not given here. The following applies: 1 mM per kg BW i.v. over 3 consecutive days, blood 24 h after last injection; individual mice. Here is the method: ^ConPFCs, ^mNPPFCs (each at 1 mM per kg BW) or saline were injected i.v. over 3 consecutive days. Twenty-four hours after the last injection, mice were killed, and blood samples were withdrawn to determine GLDH, AST, ALP, ALT and bilirubin levels by standard clinical procedures. Furthermore, the liver and spleen were dissected, fixed in formalin and snap frozen. Subsequently, 4-µm cryosections were cut and stained with hematoxylin and eosin as described previously.
Extended Data Fig. 3 Assessment of ^mNPPFC/^ConPFC biodistribution, liver serum markers and histology of liver and spleen. a, Biodistribution of intravenously injected ^mNPPFCs was determined via ^19F MRI measurements at distinct time points after injection (1, 3, 6 and 24 h after injection). Shown are quantification of fluorine signal intensities in the blood, liver and spleen indicating a fast wash-out from the blood accompanied by a strong influx into the liver while signal intensities in the spleen were constant over the entire observation period; a.u. = arbitrary units. b, Serum levels of GLDH (glutamate dehydrogenase), AST (aspartate aminotransferase), ALP (alkaline phosphatase), ALT (alanine aminotransferase) and bilirubin after intravenous application of NaCl as control, ^ConPFCs or ^mNPPFCs. c + d, 4 µm sections of liver (C) and spleen (D) stained with hematoxylin and eosin. Organs were excised and processed for histology 24 h post injection of NaCl (upper row), ^ConPFCs (middle), ^mNPPFCs (lower). Representative liver/spleen images of organs from three different animals are shown. Scale bars indicate 100 µm. Data are mean values ± SD of n = 6 (a), n = 4-6 (b) and n = 6 (c + d) independent experiments. Source data

“And” between values parts separate entries of the source, which are not always exact repeats. Equal values may be shown once. Where no end group is shown, it is not given here.

For the substance DFYKPMPNLRITGGGC [mNP], the “serum level of ALP (alkaline phosphatase)” value was 4.3 and 4.6 and 15.5 and 19.1 and 10.5 and 11.8; the “serum level of ALT (alanine aminotransferase)” value was 0.1 and 1 and 0.8; the “serum level of AST (aspartate aminotransferase)” value is 1.5 and 6.8 and 1.6 and 1.4 and 2.5 and 2.3; the “serum level of GLDH (glutamate dehydrogenase)” value was 0.89 and 1.11 and 3.48 and 0.9 and 0.22 and 0.33.

“SLAMFLTHSPEP-GGG-C [Con, reference compound]”: the “serum level of ALP (alkaline phosphatase)” value was 5.7 and 16.2 and 33.5 and 13.2 and 6.6 and 3.4; the “serum level of ALT (alanine aminotransferase)” value was 1.6 and 0.9 and 0.6 and 0.8 and 1.3; the “serum level of AST (aspartate aminotransferase)” value was 0.4 and 2 and 3.4 and 0.6 and 3.1 and 2.6; the “serum level of GLDH (glutamate dehydrogenase)” value was 1.19 and 1.21 and 2.18 and 0.14.
